B1: TPR t1 (parent)
chain: GACCAAUCUGCCCUCAGAGCUCGAGAACAUCUUCGGAUGCAGAGGAGGCAGGCUUCGGUGGCGCGAUAGCGCCAACGUCCUCAACCUCCAAUGCAUCCCACCACAUGAUGAUGCCUGAAGAGCCUUGGUUUUUUG

The variants in this data set derive from B1. Description: polymerase ribozyme fitness, log enrichment relative to wild type (log ratio); higher = more active; in vitro selection for triplet polymerase activity. The method in brief: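 Fitness compares each genotype's enrichment to that of the wild type on a logarithmic scale, averaging replicates with inverse-variance weights. The logarithm is base 2. Enrichment came from Illumina sequencing of input and output libraries after one triplicate round of in vitro selection, which included frozen incubation at −7 °C, of PCR-built, transcribed mutant libraries of each subunit of a heterodimeric triplet polymerase ribozyme. Only genotypes with ≥10 input reads and ≥1 read per output were kept.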
Turning to C3A C4A G51A G60A A84G G120U, the “polymerase ribozyme fitness (log ratio)” value is -3.02.
The figure for C3U U7A A37C C98U is -2.2; for C4A C56G C102U it is -4.
In the case of C3A G36A G44C C72A U130A it was -4.85.
In the case of A2U C11G G122A it was -0.62; in that of C3G U9A G71U G110C, -5.18; in that of A2U A50G G71U A118G, -2.92.
With C4A C115U G120A U131A, the “polymerase ribozyme fitness (log ratio)” value is -5.05.
The figure for C3U G48U U54G G120C is 0.141; for C3U G39U G47A G117A it is -4.33; for C3U C13A A29U G44C C124G U132C it is -3.39.
As for C3U C49A G120A, the “polymerase ribozyme fitness (log ratio)” value was -0.42.
Take C3U U9C C49A G69A C115A: the “polymerase ribozyme fitness (log ratio)” value was -0.734.
In the case of C3A C12A it was -1.53; in that of A2U C28U C49A C101G U106A, -4.56; in that of A2U G10U A90C G122A, -3.13.
In the case of C4G A16C C82U G120C C124A it was -3.01.
In the case of C3A U78C U87C C102U C124G U131A it was -0.482; in that of A2U C3G C123G, -0.606; in that of C4A G110U, -3.24.
As to C4A A46C, the “polymerase ribozyme fitness (log ratio)” value is -3.07.
In the case of C4A A46U it was -2.61; in that of C4A G51U C70A A84C G113U C114U G128A, -6.15.
In the case of A2U C115A it was -2.22; in that of A2U G19U G25U A26G A27U, -6.04.
The figure for C3U A27G G42U C72U C82U C104U is -3.31.
As for C4A A5C C13U G128C, the “polymerase ribozyme fitness (log ratio)” value was -1.73.
In the case of C3U C12U C53G C56U U106A A111C C123G G127A it was -5.21; in that of C4A A6C C11G C40U G110U, -4.57.
As to C3G C22A, the “polymerase ribozyme fitness (log ratio)” value was -4.35.
In the case of C3U A26U C49U A118U it was -3.26; in that of C3U G47A G60A C85G C123U, -2.64.
The figure for C4G A111G is -1.57; for C3A G61C it is -3.47.
The figure for A2U G17A C28U A43U G61C G110A is -6.04; for A2U C88G it is -3.37; for C4A C34A G71U it is -4.3.
In the case of C3U U78C A105C C124U, the “polymerase ribozyme fitness (log ratio)” value is -1.78.
For the variant A2U G52C, the “polymerase ribozyme fitness (log ratio)” value is -3.28.
As for C4A A27U, the “polymerase ribozyme fitness (log ratio)” value is -3.57.
As for C4G A37U, the “polymerase ribozyme fitness (log ratio)” value is -1.82.
C3U C62G: the “polymerase ribozyme fitness (log ratio)” value was -2.24.
In the case of C3U U112C it was 1.51; in that of C3U A27U G52U C72U C76U C85U U116G C124U U129C, -7.12.
The figure for C3G G39C C53G G113U is -5.93; for C3U G69U C98A G113A it is -1.77; for C3A G10A C13A G36U C70A U129C it is -5.83.
In the case of C3U C86U A95U U125G U126G it was -3.14; in that of C3A G48U U125A, -2.7; in that of C3A U92A C114U, -4.76.
As for A2U C13G C62U, the “polymerase ribozyme fitness (log ratio)” value was -2.85.
In the case of A2U C56A U106A C115G it was -4.51.
In the case of C4A C13U C40A G52A C104U it was -2.23.
In the case of C4G C12U C97A U112C it was -2.59; in that of A2U C72U, -2.02.
On to A2U C72G, for which the “polymerase ribozyme fitness (log ratio)” value is -1.72.
The figure for A2U A46G C73U U81C is -3.83; for C3U C70A it is -1.81; for C3G C12G G120A G128U it is 0.37.
Regarding C3U C22G G39U C49G C70U G110U, the “polymerase ribozyme fitness (log ratio)” value is -5.2.
In the case of C4A C13U C15G A37C G113A A121C, the “polymerase ribozyme fitness (log ratio)” value is -6.02.
The figure for C3U C12G C72U is -0.647; for C3A C49G A75U U125A it is -2.69.
As to A2U C8U C11G C72A, the “polymerase ribozyme fitness (log ratio)” value is -0.286.
For the variant C3A C20G A119U A121U U132C, the “polymerase ribozyme fitness (log ratio)” value was -3.91.
The figure for C3U C79A G117A is -4.
The figure for C3U G17A G36C C49A A50U G58C G60A C88U G117U is -6.3; for C3U A37C C53G U55C it is -1.11.
The figure for C3U G122A is -1.01; for A2U G45A C62U C115U U133A it is -2.99.
As to C3G A5U C11U C73U C89G C123U, the “polymerase ribozyme fitness (log ratio)” value was -1.08.
In the case of C4G A46U C53A C72A C86A, the “polymerase ribozyme fitness (log ratio)” value was -2.23.
In the case of C4A A29G C88A it was -3.39; in that of A2U C94U, -3.62; in that of C4A C88U, -1.68.
In the case of C4A C88A it was -1.56.
The figure for C3A U55G is -1.43; for C4A C12A C86G G120U G128C it is -1.61.
With C3U U7G A111U, the “polymerase ribozyme fitness (log ratio)” value was -1.66.
The figure for C3G C56A C86G C104A is -5.13; for C3U C53G it is -0.501; for C3G A83C it is -2.39.
For C3U C123A, the “polymerase ribozyme fitness (log ratio)” value is 0.564.
In the case of C3U C123G it was 1.6; in that of C3U G69A, -2.67.
In the case of C3U U112G C114A it was -3.78; in that of C4G A50U G61U, -2.2.
In the case of C3A C8A C62A C97U it was -2.46.
On to C3U G69U C94G C114A U125A, for which the “polymerase ribozyme fitness (log ratio)” value was -3.19.
Consider C3U A6C C13A, for which the “polymerase ribozyme fitness (log ratio)” value is -3.09.
Take C3A A29U G63A C82A A91C C114U G128U: the “polymerase ribozyme fitness (log ratio)” value is -3.24.
In the case of C3A U9A G52U C88G A91C G127U it was -1.59; in that of C3U C13U, -0.225; in that of C3U U96A, -1.12.
In the case of C3U U9G G19U G58C it was -3.13; in that of C3U G120C, 0.705; in that of C3G C8G, -0.464.
In the case of C3U U9A A27G G42U A100U U133A it was -3.45; in that of C3U C34A C76U G120C, -3.72; in that of C3U U92G G117U A119U, -5.83.
For C3U U38A G69U U109A, the “polymerase ribozyme fitness (log ratio)” value is -2.41.
In the case of C3A G45U C72G U87C it was -3.73.
The figure for C3U G23C G60A U106A A111C is -6.81.
The figure for C4G A50C C115U is -4.34; for C3G C62U it is -1.58; for C3U G113C it is -2.47.
As to C4G A5G C53A C89A G113U C114U G122U U129G, the “polymerase ribozyme fitness (log ratio)” value is -4.07.
In the case of C3U C115U it was -1.53.
Take C3A A6C A46G C49G G69C C104U: the “polymerase ribozyme fitness (log ratio)” value is -3.86.
In the case of C3G U7A C11A C40A C73U C85G it was -4.89; in that of C3U G71U A121G U125A, 1.49.
The figure for C3U C13G A90U A121C C124A is -0.103; for C3U C12A it is -0.942.
In the case of C4G A27G A29G it was -5.02.
Consider A2U C15A A16C G17A C72A C85G A118U C124G, for which the “polymerase ribozyme fitness (log ratio)” value was -2.91.
In the case of A2U G17A, the “polymerase ribozyme fitness (log ratio)” value is -5.45.
A2U C8U G45A C73U A95G G120A: the “polymerase ribozyme fitness (log ratio)” value is -0.341.
In the case of C3U C12G A46C it was -0.734.
In the case of A2U U32C C62A it was -4.44; in that of A2U G10U A18G U33G G60A C124A, -6.77.
With C3A A84G, the “polymerase ribozyme fitness (log ratio)” value was -2.2.
The figure for C3U C11A G47A U87G is -2.77; for C3U C13G G48U A50U U92C G120A U131A it is -3.5.
The figure for C3A C85U is -2.76.
In the case of C3A C85A it was -3.94; in that of C4A G60A, -0.949.
On to C4G A5C C82U U125A, for which the “polymerase ribozyme fitness (log ratio)” value is -1.74.
The figure for A2U G23U G60U C79U G110A is -6.
In the case of C3A G48A C86U A121G G127C U131G U132A it was -0.349; in that of C3U C11A, -1.47.
The figure for C3U C34G C123U is -4.64; for C3G C94G C114U G128C it is -2.66.
For the variant A2U C13U C85G U131G, the “polymerase ribozyme fitness (log ratio)” value is -3.98.
As for C3G U112A C115A, the “polymerase ribozyme fitness (log ratio)” value is -2.03.
The figure for C3U A18U C82A G120C is -1.8.
As to C3U G57A C72U, the “polymerase ribozyme fitness (log ratio)” value was -0.755.
The figure for C3U G44C C114A A119U G122C is -3.33; for C3U C28U G71A C89A C123G U130C it is -4.19; for A2U C70G it is -5.04.
Turning to C4A C13A A27C C123G, the “polymerase ribozyme fitness (log ratio)” value was -3.14.
The figure for C3U A41C C70G U112C C124U is -3.32; for A2U C64U C89G it is -5.12; for C3U G36U G63U C88U A111U C124U it is -6.17.
The figure for C3U G60A G77U G117C is -3.58; for C3U C13U G120A it is 1.11.
In the case of C3U C12A C82A it was -1.8.
For the variant C4A G48U G120U, the “polymerase ribozyme fitness (log ratio)” value was -3.84.
In the case of C3U C79A G113U it was -5.54; in that of C3G C13U G45U G48A, -2.41; in that of A2U G69U, -1.7.
As for A2U G69A, the “polymerase ribozyme fitness (log ratio)” value is -4.39.
The figure for C3A C12U G42A G44C C79U C88A A118G G120A is -1.44; for A2U C8U G36U C80U G127C U130C it is -3.03; for C3U G51U C80U it is -2.32.
C3G C20U A46G C124U: the “polymerase ribozyme fitness (log ratio)” value was -2.93.
In the case of C3U C56G G58U G113U it was -4.35; in that of C3U U125A, -1.04; in that of C4G A27U G45A G61A C86A C97A G117A, -6.02.
Consider C4A G63A, for which the “polymerase ribozyme fitness (log ratio)” value was -1.65.
Take C3A G47A C72A A100C: the “polymerase ribozyme fitness (log ratio)” value is -2.89.
In the case of C4A A121U U129G it was 0.901.
In the case of C3U C86A it was -0.57; in that of C3G C102U C124A, -2.89; in that of C3U C56A G69A C72A C101U U112A C123G, -5.58.
In the case of C3G G120A C124G G128C it was 0.839; in that of A2U U87G, -2.24; in that of C3A C8A C53G C101A, -1.64.

For the origin of these results see the RNAGym collection of RNA variant scans (doi:10.1073/pnas.2313332121).
